Laboratory results as given in patent US20040059519A1.
“And” between values parts separate entries of the source, which are not always exact repeats. Equal values may be shown once. Each block holds one substance with its values, some of them ahead of it.

Legend:
Alpha fetoprotein [1] = target: Alpha fetoprotein (UniProt P02771); test: anti-AFP capture beads, flow cytometry; AFP 0.0 ng/mL, anti-AFP probe
Alpha fetoprotein [2] = target: Alpha fetoprotein (UniProt P02771); test: multiplex sandwich, S10473 capture beads; AFP 0 ng/mL, no wash
[3] = target: Human chorionic gonadotropin (human) (UniProt P01215); test: anti-AFP capture beads, flow cytometry; hCG 1000.0 ng/mL, anti-AFP probe
UniProt P01215, sequence (P01215 25-116, chain 1 of 2, other chains not shown): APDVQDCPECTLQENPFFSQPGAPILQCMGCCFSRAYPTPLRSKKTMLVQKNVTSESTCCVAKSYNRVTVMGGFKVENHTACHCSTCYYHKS

Alpha fetoprotein [4] = target: Alpha fetoprotein (UniProt P02771); test: multiplex sandwich, S10473 capture beads; AFP 500 ng/mL, washed
[5] = target: Human chorionic gonadotropin (human) (UniProt P01215); test: MAB602 capture beads, flow cytometry; hCG 0.0 ng/mL, anti-AFP probe
Alpha fetoprotein [6] = target: Alpha fetoprotein (UniProt P02771); test: multiplex sandwich, S10473 capture beads; AFP 8 ng/mL, washed
[7] = target: Human chorionic gonadotropin (human) (UniProt P01215); test: MAB602 capture beads, flow cytometry; hCG 1.0 ng/mL, anti-AFP probe
Alpha fetoprotein [8] = target: Alpha fetoprotein (UniProt P02771); test: multiplex sandwich, S10473 capture beads; AFP 500 ng/mL, no wash
[9] = target: Human chorionic gonadotropin (human) (UniProt P01215); test: MAB602 capture beads, flow cytometry; hCG 100.0 ng/mL, anti-AFP probe
[10] = target: Human chorionic gonadotropin (human) (UniProt P01215); test: multiplex sandwich, MAB602 capture beads; hCG 8 ng/mL, no wash
[11] = target: Human chorionic gonadotropin (human) (UniProt P01215); test: multiplex sandwich, MAB602 capture beads; hCG 4 ng/mL, washed
[12] = target: Human chorionic gonadotropin (human) (UniProt P01215); test: multiplex sandwich, MAB602 capture beads; hCG 1000 ng/mL, no wash
[13] = target: Human chorionic gonadotropin (human) (UniProt P01215); test: bead sandwich, flow cytometry; capture A1 beads, no hCG (background)
[14] = target: Human chorionic gonadotropin (human) (UniProt P01215); test: multiplex sandwich, MAB602 capture beads; hCG 250 ng/mL, washed
[15] = target: Human chorionic gonadotropin (human) (UniProt P01215); test: sandwich, MAB602 capture beads, flow cytometry; hCG 0 ng/mL
[16] = target: Human chorionic gonadotropin (human) (UniProt P01215); test: multiplex sandwich, MAB602 capture beads; hCG 16 ng/mL, no wash
[17] = target: Human chorionic gonadotropin (human) (UniProt P01215); test: MAB602 capture beads, flow cytometry; hCG 100.0 ng/mL, anti-hCG probe
[18] = target: Human chorionic gonadotropin (human) (UniProt P01215); test: multiplex sandwich, MAB602 capture beads; hCG 31 ng/mL, no wash
[19] = target: Human chorionic gonadotropin (human) (UniProt P01215); test: multiplex sandwich, MAB602 capture beads; hCG 2000 ng/mL, no wash
[20] = target: Human chorionic gonadotropin (human) (UniProt P01215); test: multiplex sandwich, MAB602 capture beads; hCG 125 ng/mL, no wash
[21] = target: Human chorionic gonadotropin (human) (UniProt P01215); test: sandwich, MAB602 capture beads, flow cytometry; hCG 2 ng/mL
[22] = target: Human chorionic gonadotropin (human) (UniProt P01215); test: multiplex no-wash sandwich, MAB602 beads; serum Level 1, hCG 22.8 mU/mL
[23] = target: Human chorionic gonadotropin (human) (UniProt P01215); test: multiplex sandwich, MAB602 capture beads; hCG 0 ng/mL, washed
Alpha fetoprotein [24] = target: Alpha fetoprotein (UniProt P02771); test: MAB602 capture beads, flow cytometry; AFP 0.0 ng/mL, anti-hCG probe
Alpha fetoprotein [25] = target: Alpha fetoprotein (UniProt P02771); test: anti-AFP capture beads, flow cytometry; AFP 100.0 ng/mL, anti-hCG probe
[26] = target: Human chorionic gonadotropin (human) (UniProt P01215); test: bead sandwich, flow cytometry; capture A2 (MAB 602) beads, no hCG (background)
Alpha fetoprotein [27] = target: Alpha fetoprotein (UniProt P02771); test: MAB602 capture beads, flow cytometry; AFP 1000.0 ng/mL, anti-hCG probe
[28] = target: Human chorionic gonadotropin (human) (UniProt P01215); test: multiplex no-wash sandwich, MAB602 beads; serum Level 3, hCG 436 mU/mL
[29] = target: Human chorionic gonadotropin (human) (UniProt P01215); test: sandwich, MAB602 capture beads, flow cytometry; hCG 2000 ng/mL
[30] = target: Human chorionic gonadotropin (human) (UniProt P01215); test: multiplex sandwich, MAB602 capture beads; hCG 1 ng/mL, washed
Alpha fetoprotein [31] = target: Alpha fetoprotein (UniProt P02771); test: MAB602 capture beads, flow cytometry; AFP 0.1 ng/mL, anti-hCG probe
[32] = target: Neutravidin (deglycosylated avidin) (UniProt P02701); test: multiplex, Neutravidin bead 70/60 without peptide, flow cytometry
UniProt P02701, sequence (P02701 25-152 limits assumed): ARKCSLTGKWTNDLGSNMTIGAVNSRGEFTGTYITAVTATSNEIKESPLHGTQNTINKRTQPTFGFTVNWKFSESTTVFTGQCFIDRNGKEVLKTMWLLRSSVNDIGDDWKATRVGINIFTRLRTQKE

[33] = target: Neutravidin (deglycosylated avidin) (UniProt P02701); test: single-analyte, Neutravidin bead 70/70 without peptide, flow cytometry
[34] = target: Neutravidin (deglycosylated avidin) (UniProt P02701); test: multiplex, Neutravidin bead 40/60 without peptide, flow cytometry
[35] = target: Neutravidin (deglycosylated avidin) (UniProt P02701); test: single-analyte, Neutravidin bead 40/40 without peptide, flow cytometry
[36] = target: Neutravidin (deglycosylated avidin) (UniProt P02701); test: multiplex, Neutravidin bead 40/50 without peptide, flow cytometry
[37] = target: Neutravidin (deglycosylated avidin) (UniProt P02701); test: single-analyte, Neutravidin bead 40/70 without peptide, flow cytometry
[38] = target: Neutravidin (deglycosylated avidin) (UniProt P02701); test: single-analyte, Neutravidin bead 40/50 without peptide, flow cytometry
[39] = target: Neutravidin (deglycosylated avidin) (UniProt P02701); test: multiplex, Neutravidin bead 70/40 without peptide, flow cytometry
[40] = target: Neutravidin (deglycosylated avidin) (UniProt P02701); test: multiplex, Neutravidin bead 60/70 without peptide, flow cytometry

UniProt P02771, sequence (P02771 19-609 limits assumed): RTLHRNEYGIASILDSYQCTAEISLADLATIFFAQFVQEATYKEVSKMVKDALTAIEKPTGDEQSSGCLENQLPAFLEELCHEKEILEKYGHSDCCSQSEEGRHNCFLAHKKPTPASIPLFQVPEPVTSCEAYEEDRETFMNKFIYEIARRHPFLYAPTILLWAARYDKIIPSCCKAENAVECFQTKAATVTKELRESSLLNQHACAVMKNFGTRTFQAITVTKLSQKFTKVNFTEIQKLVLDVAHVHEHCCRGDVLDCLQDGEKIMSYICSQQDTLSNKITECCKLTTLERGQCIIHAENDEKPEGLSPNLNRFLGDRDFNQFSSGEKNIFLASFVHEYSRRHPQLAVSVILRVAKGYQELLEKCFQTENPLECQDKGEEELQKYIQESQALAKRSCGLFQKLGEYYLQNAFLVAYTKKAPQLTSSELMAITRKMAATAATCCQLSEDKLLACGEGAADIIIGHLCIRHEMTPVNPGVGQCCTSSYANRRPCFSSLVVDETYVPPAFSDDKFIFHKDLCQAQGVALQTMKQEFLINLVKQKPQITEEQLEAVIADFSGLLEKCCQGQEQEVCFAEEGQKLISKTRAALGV

MIF of Fm (Alpha fetoprotein [1]): 45
MIF of Fm (Alpha fetoprotein [2]): 15
MIF of Fm [3]: 78
MIF of Fm (Alpha fetoprotein [4]): 1380
MIF of Fm [5]: 72
MIF of Fm (Alpha fetoprotein [6]): 205
MIF of Fm [7]: 48
MIF of Fm (Alpha fetoprotein [8]): 643
MIF of Fm [9]: 48
Substance: M20077 affinity purified polyclonal anti-AFP antibody, Bodipy FL-CASE labeled

MIF of Fm [10]: 1760
MIF of Fm [11]: 1300
MIF of Fm [12]: 770
MIF of Fm [13]: 108
MIF of Fm [14]: 2760
MIF of Fm [15]: 128 and 111
MIF of Fm [16]: 2440
MIF of Fm [17]: 761
MIF of Fm [18]: 2510
MIF of Fm [19]: 491
MIF of Fm [20]: 2070
MIF of Fm [21]: 1290 and 1380
MIF AVG [22]: 25.7
MIF of FL1 [22]: 23 and 27
MIF of Fm [23]: 18
MIF of Fm (Alpha fetoprotein [24]): 71
MIF of Fm (Alpha fetoprotein [25]): 75
MIF of Fm [26]: 163
MIF of Fm (Alpha fetoprotein [27]): 53
MIF AVG [28]: 624
MIF of FL1 [28]: 631 and 601 and 640
MIF of Fm [29]: 9290 and 9390
MIF of Fm [30]: 359
MIF of Fm (Alpha fetoprotein [31]): 52
Substance: AB633 affinity purified polyclonal anti-hCG antibody, Bodipy FL-CASE labeled

MIF of Fm [32]: 23
MIF of Fm [33]: 66
MIF of Fm [34]: 26
MIF of Fm [35]: 44
MIF of Fm [36]: 27
MIF of Fm [37]: 43
MIF of Fm [38]: 47
MIF of Fm [39]: 21
MIF of Fm [40]: 36
Substance: MAB 384, Bodipy FL-X labeled (antibody)
